Results from publication PMC5625703.

Target: pGBKT7-53 (control bait)
Test: two-hybrid; β-galactosidase activity assay (Yeast β-galactosidase Assay Kit) on a colony from a DDO plate, 37 °C, OD 420 nm; average of three measurements

pGADT7-T (control prey) (natural protein)
β-galactosidase activity: 401 units
